Target: T1, TSPAN8 (UniProt P19075 1-237, limits assumed)
T1 sequence (looked up): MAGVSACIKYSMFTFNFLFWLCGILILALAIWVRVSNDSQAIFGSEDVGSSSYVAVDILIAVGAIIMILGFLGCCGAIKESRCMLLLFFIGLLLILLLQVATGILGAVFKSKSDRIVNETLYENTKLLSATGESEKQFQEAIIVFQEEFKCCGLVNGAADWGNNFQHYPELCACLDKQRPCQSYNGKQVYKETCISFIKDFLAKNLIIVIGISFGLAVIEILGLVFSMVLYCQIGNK
Assay: cell-based or functional assay

B1: TSPAN8_hl_Sig4 CAR (other)
chain: EVKLLESGGGLVQPGGSMRLSCAASGFTFTDFYMNWIRQPAGKAPEWLGFIRNKASGYTTEYNPSVKGRFTISRDNTQNMLYLQMNTLRAEDTATYYCARAHSYYGYDYFDYWGQGVMVTVSSGGGGSGGGGSGGGGSDIQMTQSPASLSASLEEIVTITCQASQDIGNWLSWYQQKPGKSPQLLIYGATSLADGVPSRFSGSRSGTQYSLKISRLQVEDIRIYYCLQAYSAPWTFGGGTKLELKAASYPPVIVEMNSSVEAIEGSHVSLLCGADSNPPPLLTWMRDGTVLREAVAESLLLELEEVTPAEDGVYACLAENAYGQDNRTVGLSVMYAPWKPTVNGTMVAVEGETVSILCSTQSNPDPILTIFKEKQILSTVIYESELQLELPAVSPEDDGEYWCVAENQYGQRATAFNLSVEFAPVLLLESHCAAARDTVQCLCVVKSNPEPSVAFELPSRNVTVNESEREFVYSERSGLVLTSILTLRGQAQAPPRVICTARNLYGAKSLELPFQGAHRLMWAKIGPIYIWAPLAGTCGVLLLSLVITLYCKRGRKKLLYIFKQPFMRPVQTTQEEDGCSCRFPEEEEGGCELRVKFSRSADAPAYQQGQNQLYNELNLGRREEYDVLDKRRGRDPEMGGKPRRKNPQEGLYNELQKDKMAEAYSEIGMKGERRRGKGHDGLYQGLSTATKDTYDALHMQALPPR
cytokine release after 24 h co-culture with AsPC1 cells (MACSPlex), against the TSPAN8 CD8a CAR T cells: 10 fold lower

— patent US20210371490A1 (MILTENYI BIOTEC B V, published 2021)
